Experimental data published in publication PMC10393190 (Genes & Development, 2022).

B2: Rec114 C-terminal (dimerization) domain, residues 375–428 (domain or fragment)
chain: EASPSEGLTIRVKNVNRNASRKISKRLIKEKLKDEEFMKWVNKVETVLNKMFEK

Columns and labels:
[1] = target: HisSUMO-PAIR1 coiled-coil domain (residues 140–310) (Z. mays) (Z. mays); assay: SEC-MALS
[2] = target: HisSUMO-ASY2 coiled-coil domain (residues 55–275) (Sordaria macrospora) (Sordaria macrospora); assay: SEC-MALS
[3] = target: B2; assay: NMR
SEC-MALS = target: the molecule itself; assay: SEC-MALS
NMR = target: the molecule itself; assay: NMR
Mer2 = target: T1, Mer2 (Saccharomyces cerevisiae, UniProt P21651 1-314); assay: EMSA
T1 sequence: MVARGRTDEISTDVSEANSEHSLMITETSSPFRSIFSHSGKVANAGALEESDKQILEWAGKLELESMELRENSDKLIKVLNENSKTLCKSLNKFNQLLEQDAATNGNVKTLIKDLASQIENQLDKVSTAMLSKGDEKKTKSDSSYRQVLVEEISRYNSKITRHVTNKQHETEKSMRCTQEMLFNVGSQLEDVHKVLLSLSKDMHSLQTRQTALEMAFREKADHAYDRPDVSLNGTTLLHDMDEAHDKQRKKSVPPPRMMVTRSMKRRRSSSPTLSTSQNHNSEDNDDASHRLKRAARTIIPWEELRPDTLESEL

IHO1 coiled-coil domain = target: T2, IHO1 coiled-coil domain (Mus musculus, UniProt Q6PDM4 109-267); assay: EMSA
T2 sequence: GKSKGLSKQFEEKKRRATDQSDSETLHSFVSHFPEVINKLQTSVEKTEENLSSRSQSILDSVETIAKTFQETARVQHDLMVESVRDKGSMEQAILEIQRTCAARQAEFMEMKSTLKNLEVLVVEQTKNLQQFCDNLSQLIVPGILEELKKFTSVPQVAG

Rec15 coiled-coil domain = target: T3, Rec15 coiled-coil domain (Schizosaccharomyces pombe, UniProt Q09094 1-160); assay: EMSA
T3 sequence: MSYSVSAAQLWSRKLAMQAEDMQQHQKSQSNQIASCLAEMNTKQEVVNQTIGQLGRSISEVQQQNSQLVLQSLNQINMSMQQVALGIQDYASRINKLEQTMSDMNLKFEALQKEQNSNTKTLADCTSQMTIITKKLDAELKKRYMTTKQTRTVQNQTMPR

[4] = target: T4, Rec114-6KR C-terminal domain;Mei4 N-terminal domain (Saccharomyces cerevisiae;Saccharomyces …, UniProt P32841;P29467 375-428;1-43, R395A;K396A;K399A;R400A;K403A;K407A|); assay: EMSA
T4 sequence 1: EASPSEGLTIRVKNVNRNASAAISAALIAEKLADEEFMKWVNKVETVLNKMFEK
T4 sequence 2: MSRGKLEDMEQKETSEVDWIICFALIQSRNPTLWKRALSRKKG

Mer2-KKTK mutant = target: T5, Mer2-KKTK mutant (Saccharomyces cerevisiae, UniProt P21651 1-314, K137A;K138A;K140A); assay: EMSA
T5 sequence: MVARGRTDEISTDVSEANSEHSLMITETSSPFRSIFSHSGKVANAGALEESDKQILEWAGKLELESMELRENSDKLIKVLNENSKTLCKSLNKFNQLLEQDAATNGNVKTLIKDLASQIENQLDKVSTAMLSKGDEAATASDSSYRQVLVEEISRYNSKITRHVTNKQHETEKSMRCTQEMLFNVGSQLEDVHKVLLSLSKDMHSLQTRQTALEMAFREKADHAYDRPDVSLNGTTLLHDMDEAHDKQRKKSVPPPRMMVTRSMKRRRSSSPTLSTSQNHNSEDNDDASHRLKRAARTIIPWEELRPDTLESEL

[5] = target: T6, IHO1-KKRR coiled-coil domain (Mus musculus, UniProt Q6PDM4 109-267, K121A;K122A;R123A;R124A); assay: EMSA
T6 sequence: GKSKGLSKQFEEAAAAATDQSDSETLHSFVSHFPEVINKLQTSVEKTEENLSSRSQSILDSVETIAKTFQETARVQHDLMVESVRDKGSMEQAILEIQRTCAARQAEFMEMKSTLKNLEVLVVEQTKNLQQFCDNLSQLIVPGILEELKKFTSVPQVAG

[6] = target: T7, Rec15-5KR coiled-coil domain (Schizosaccharomyces pombe, UniProt Q09094 1-160, K134A;K135A;K141A;K142A;R143A); assay: EMSA
T7 sequence: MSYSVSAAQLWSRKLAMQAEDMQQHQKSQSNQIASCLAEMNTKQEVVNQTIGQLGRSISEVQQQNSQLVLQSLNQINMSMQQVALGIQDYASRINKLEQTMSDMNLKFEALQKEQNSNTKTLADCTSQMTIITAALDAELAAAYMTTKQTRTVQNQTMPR

HisSUMO-PAIR1 coiled-coil domain (residues 140–310) (Z. mays) (domain or fragment)
stoichiometry N [1]: 4

HisSUMO-ASY2 coiled-coil domain (residues 55–275) (Sordaria macrospora) (domain or fragment)
stoichiometry N [2]: 4

MSRGKLEDMEQKETSEVDWIICFALIQSRNPTLWKRALSRKKG (domain or fragment) [Mei4 N-terminal domain, residues 1–43]
binding result [3]: binds

B1: HisSUMO-IHO1 coiled-coil domain (residues 109–267) (M. musculus) (domain or fragment)
chain: GKSKGLSKQFEEKKRRATDQSDSETLHSFVSHFPEVINKLQTSVEKTEENLSSRSQSILDSVETIAKTFQETARVQHDLMVESVRDKGSMEQAILEIQRTCAARQAEFMEMKSTLKNLEVLVVEQTKNLQQFCDNLSQLIVPGILEELKKFTSVPQVAG
stoichiometry N (SEC-MALS): 4

B2
binding result (NMR): binds

B3: HisSUMO-PRD3 coiled-coil domain (residues 120–270) (A. thaliana) (domain or fragment)
chain: IGESKSQISEELEQRFGMMETSLSRFGMMLDSIQSDIMQANRGTKEVFLETERIQQKLTLQDTSLQQLRKEQADSKASLDGGVKFILEEFSKDPNQEKLQKILQMLTTIPEQVETALQKIQREICHTFTREIQVLASLRTPEPRVRVPTAP
stoichiometry N (SEC-MALS): 4

B4: HisSUMO-Rec15 coiled-coil domain (residues 1–160) (S. pombe) (domain or fragment)
chain: MSYSVSAAQLWSRKLAMQAEDMQQHQKSQSNQIASCLAEMNTKQEVVNQTIGQLGRSISEVQQQNSQLVLQSLNQINMSMQQVALGIQDYASRINKLEQTMSDMNLKFEALQKEQNSNTKTLADCTSQMTIITKKLDAELKKRYMTTKQTRTVQNQTMPR
stoichiometry N (SEC-MALS): 4

B5: HisSUMO-tagged Mer2 coiled-coil domain (residues 41–224) (domain or fragment)
chain: KVANAGALEESDKQILEWAGKLELESMELRENSDKLIKVLNENSKTLCKSLNKFNQLLEQDAATNGNVKTLIKDLASQIENQLDKVSTAMLSKGDEKKTKSDSSYRQVLVEEISRYNSKITRHVTNKQHETEKSMRCTQEMLFNVGSQLEDVHKVLLSLSKDMHSLQTRQTALEMAFREKADHA
stoichiometry N (SEC-MALS): 4

B6: Mer2 C-terminal half of the coiled coil (residues 138–224) (domain or fragment)
chain: KTKSDSSYRQVLVEEISRYNSKITRHVTNKQHETEKSMRCTQEMLFNVGSQLEDVHKVLLSLSKDMHSLQTRQTALEMAFREKADHA
stoichiometry N (SEC-MALS): 4

B7: Mer2 (residues 161–224) (domain or fragment)
chain: TRHVTNKQHETEKSMRCTQEMLFNVGSQLEDVHKVLLSLSKDMHSLQTRQTALEMAFREKADHA
stoichiometry N (SEC-MALS): 3

B8: Mer2 N-terminal half of the coiled coil (residues 41–136) (domain or fragment)
chain: KVANAGALEESDKQILEWAGKLELESMELRENSDKLIKVLNENSKTLCKSLNKFNQLLEQDAATNGNVKTLIKDLASQIENQLDKVSTAMLSKGDE
stoichiometry N (SEC-MALS): 2

B9: Y (cb095/cb098/cb101) (structured_DNA)
DNA 1: CTAGTATAGAGCCGGCGCGCCATGTCTAGATAGCGTTAGGTCTGCCGAATAGTACTACTCGGATCCCGAGCGAACCACGC
DNA 2: CACGGGTAACCGCGGGTACCGTGAAGATCTACTCGCGTCTCCTAACGCTATCTAGACATGGCGCGCCGGCTCTATACTAG
DNA 3: GCGTGGTTCGCTCGGGATCCGAGTAGTACTATTCGGCAGAAGACGCGAGTAGATCTTCACGGTACCCGCGGTTACCCGTG
apparent K (half saturation) (Mer2): 10.6 ± 1.2 nM

B10: HJ40 fluorescent (dd077/cb096/cb097/cb098) (structured_DNA)
DNA 1: CTAGTATAGAGCCGGCGCGCCATGTCTAGATAGCGTTAGGTCTGCCGAATAGTACTACTCGGATCCCGAGCGAACCACGC
DNA 2: GCGTGGTTCGCTCGGGATCCGAGTAGTACTATTCGGCAGAGGATTCGAATAGGCCTAATCGAATTCCGCCATCGATGCAC
DNA 3: GTGCATCGATGGCGGAATTCGATTAGGCCTATTCGAATCCAGACGCGAGTAGATCTTCACGGTACCCGCGGTTACCCGTG
DNA 4: CACGGGTAACCGCGGGTACCGTGAAGATCTACTCGCGTCTCCTAACGCTATCTAGACATGGCGCGCCGGCTCTATACTAG
binding result (IHO1 coiled-coil domain): binds | binding result (Rec15 coiled-coil domain): binds | binding result [4]: no binding | binding result (Mer2-KKTK mutant): binds | binding result [5]: no binding | binding result [6]: no binding
